From publication PMC4222082, “Nitrogen starvation-induced transcriptome alterations and influence of transcription regulator mutants in Mycobacterium smegmatis”

T1: MBP-GlnR (Mycobacterium smegmatis (SMR5?)) (UniProt A0R4C4)
T1 sequence: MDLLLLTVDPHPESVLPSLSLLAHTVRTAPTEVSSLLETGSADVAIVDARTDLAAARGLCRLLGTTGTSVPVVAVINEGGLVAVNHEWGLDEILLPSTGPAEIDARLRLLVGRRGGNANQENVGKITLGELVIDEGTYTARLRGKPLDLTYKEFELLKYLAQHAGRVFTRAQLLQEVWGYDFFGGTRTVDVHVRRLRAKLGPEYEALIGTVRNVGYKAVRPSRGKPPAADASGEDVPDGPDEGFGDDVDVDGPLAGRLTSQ

T2: MBP-GlnR (Mycobacterium smegmatis, UniProt A0R4C4 1-261)
T2 sequence: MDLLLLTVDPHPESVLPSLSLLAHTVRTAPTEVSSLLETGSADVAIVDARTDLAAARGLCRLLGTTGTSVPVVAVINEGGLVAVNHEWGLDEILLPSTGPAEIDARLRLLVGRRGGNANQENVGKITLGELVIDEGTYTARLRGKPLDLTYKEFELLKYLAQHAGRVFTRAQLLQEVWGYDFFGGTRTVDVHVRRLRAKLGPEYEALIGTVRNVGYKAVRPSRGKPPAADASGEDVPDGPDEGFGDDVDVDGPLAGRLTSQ


Experiments:
[1] = target: T1, MBP-GlnR (Mycobacterium smegmatis (SMR5?)); assay: EMSA; conditions: GlnR: DIG Gel Shift Kit (Roche) buffer, 6% native PAGE, 0.5x TBE; AmtR: 20 mM Tris-HCl pH 7.9, 25 mM KCl, 1 mM DTT, 5 mM MgCl2, 0.5 mg/ml BSA, 5% glycerol …
MBP-GlnR [2] = target: T2, MBP-GlnR; assay: competition; 1000-fold excess vs fragment 6 probe; GlnR: DIG Gel Shift Kit (Roche) buffer, 6% native PAGE, 0.5x TBE; AmtR: 20 mM Tris-HCl pH 7.9, 25 mM KCl, 1 mM DTT, 5 mM MgCl2, 0.5 mg/ml BSA, 5% glycerol, 2 ug sperm DNA, 25 C 30 min; conditions: protein: recombinant; (pMal-c2-glnR); chain copies: 2
MBP-GlnR [3] = target: T2, MBP-GlnR; assay: competition; 1000-fold excess vs 220 bp amtB probe; GlnR: DIG Gel Shift Kit (Roche) buffer, 6% native PAGE, 0.5x TBE; AmtR: 20 mM Tris-HCl pH 7.9, 25 mM KCl, 1 mM DTT, 5 mM MgCl2, 0.5 mg/ml BSA, 5% glycerol, 2 ug sperm DNA, 25 C 30 min; conditions: protein: recombinant; (pMal-c2-glnR); chain copies: 2; label: digoxigenin when used as probe

Molecule | binding [1] | also measured
CGGGGTCATCGGGCGGTCCGGCACGCCCGGCAAGGCCTGGGCCTGGCAGACCCGCTCGTGGTCGAAGGGCAAGATCCACCCCGCGGCGGTGCTCTATCAACACACCATCGACACCGCGTCGAACCCCGGACCGTTGGTCGGCGGCATCCGCGTGGATGTCAACGACGCCTTGGCCCAGGACATCGGCCAGTGGAATTTCCACCCCTGAGGTCACATCACTTTAATCTCGACGCAATTGCGTTGCCATACCGGTGATCTCTACTGAAGGCGCCAGCAGCCCCCTTCAGAGGACACCCGCCC (double strand) [msmeg_6816 upstream] | no binding | –
GGTGGCGGCGAGTTCGATACCGCTGTCGCTCAACGTGACCGGCGGCCACCCCAATCCGGTGAGGTCCACGAGCCTGCGCAGCTGAGGTTGGGGCTCGGAAAACAGCCAGGTCCCACCGGCCAACACCGCGTCGCCGGCCCCCAGCGGCCACACCTCCTCGCGACGGGTCGGCCGGTCCACCACCTCGACGGTGTTGAGGTCCATTCCCGCGACCGTAACCAAAGTGAACGCGCCGTGCACCATGAACCGTGGCACAACGCTCGGCGTGCGAACCGCCGCGATCTGTCCGATTCTTAGTCG (double strand) [msmeg_1293 upstream] | no binding | –
CCCAGCTCGCCACTCTCGATGGTGGCCAGCACCAGGGACTTCTCGGGCACGAACCCGAGCACGGCGGGCAGCGCCGCGATCAACGATCCGGGCCGGTTGATACGAAAATCCGGTGTGTGCGGTGAAGGTGTCATGTGCCGACCGTGGCAACCGGCGCCGACGCCGTTCACCCCGAAAACCGGCTGCGACGAGTGGCTGTGGACGAAATCGGCTCTGGGGACAACTTCCGAAACAAACTGTTCACGCGCCATTGCGCGTCTCCGGCGTGCACGCGCGCCGACAGCGGCGTACACACTGACC (double strand) [msmeg_2748 upstream] | no binding | –
GCCCTCCGGGCGGTATCTGCGCCTGAACTTCTCCGGGCCGGAGCCGGACCGGTTCGAGGAGGCGGCGCGCGTGATCGGACGGTCGCTGCGCAGACAGCTGTGACCCGGCGGTTGTGGCCTGACTGTGGTCCGGAGAGCTCACCGGTCGGGGACCTCACATGTGCGTTGCCGAAGACGTGAGCACACCGTGATGGGGGCTTCACACAGCGCGACATCGCGGCAATATCGGGTTCTTAGCCTCGCCCTATG (double strand) [nirB upstream] | no binding | –
amtB fragment 6.1 (dsDNA) DNA 1: TGCGTTCACTTTCCGGAAACGCAAC DNA 2: GTTGCGTTTCCGGAAAGTGAACGCA | – | binding result (MBP-GlnR [2]): binds
amtB fragment 6 (dsDNA) DNA 1: TGCGTTCACTTTCCGGAAACGCAACGGCAGCACCGGCGAAACGCCGGCAA DNA 2: TTGCCGGCGTTTCGCCGGTGCTGCCGTTGCGTTTCCGGAAAGTGAACGCA | – | binding result (MBP-GlnR [3]): binds
